This is an account of results in patent US20060110769A1, “Regulation of novel human prolyl 4-hydroxylases” (Bayer Aktiengesellschaft, priority 2001, published 2006).

The assay addresses mouse hypoxia inducible factor-1 alpha (mouse) (UniProt Q61221). Nature of the assay: cell-based or functional assay.

Sequence of mouse hypoxia inducible factor-1 alpha (mouse) (Q61221 whole entry): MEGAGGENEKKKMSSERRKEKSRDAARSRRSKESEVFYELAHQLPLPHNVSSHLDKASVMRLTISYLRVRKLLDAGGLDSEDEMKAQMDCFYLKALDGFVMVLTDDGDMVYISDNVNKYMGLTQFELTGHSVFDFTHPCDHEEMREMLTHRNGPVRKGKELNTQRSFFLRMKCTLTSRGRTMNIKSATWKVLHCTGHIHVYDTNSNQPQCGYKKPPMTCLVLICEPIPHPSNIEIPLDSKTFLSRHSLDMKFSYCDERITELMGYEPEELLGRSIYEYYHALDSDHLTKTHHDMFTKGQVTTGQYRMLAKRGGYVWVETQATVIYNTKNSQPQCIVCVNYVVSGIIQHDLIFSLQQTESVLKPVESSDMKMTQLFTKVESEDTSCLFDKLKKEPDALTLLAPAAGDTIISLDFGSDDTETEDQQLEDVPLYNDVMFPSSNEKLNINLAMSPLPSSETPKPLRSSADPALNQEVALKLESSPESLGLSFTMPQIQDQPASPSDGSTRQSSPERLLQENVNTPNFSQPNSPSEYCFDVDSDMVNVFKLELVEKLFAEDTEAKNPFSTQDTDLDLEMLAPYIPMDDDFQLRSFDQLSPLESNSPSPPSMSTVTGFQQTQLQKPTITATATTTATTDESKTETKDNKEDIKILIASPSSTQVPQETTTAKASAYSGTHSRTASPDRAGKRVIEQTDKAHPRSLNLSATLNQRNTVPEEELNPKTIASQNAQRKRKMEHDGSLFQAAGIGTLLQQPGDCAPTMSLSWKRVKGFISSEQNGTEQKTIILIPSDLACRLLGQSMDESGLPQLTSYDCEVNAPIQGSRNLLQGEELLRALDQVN

“EGLN3, human HIF-prolyl-hydroxylase (from UniProt Q9H6Z9 1-239)” yielded a reduction of the transactivation activity of cotransfected HIF-1 alpha on the hypoxia responsive luciferase reporter (HEK/293 cells, equal amounts of each plasmid) of 90%.
